Data set [1] relates to Manduca Gut Extract (MGE). Description: Manduca Gut Extract (MGE) digest of TVPs. It counts as in vitro ADME, Manduca sexta. As to conditions: for Fold Stability Improvement: in the presence of MGE, relative to Ta1b; for Half Life (min) Manduca Gut Extract (MGE): 1 mg/mL TVP, 1/10 diluted MGE, 50 mM Tris-HCl pH 8.8; for Fold Change (MGE): half life relative to WT Ta1b. How it is done:
(§1) To determine the stability of TVPs when exposed to lepidopteran gut proteases. Briefly, 5th instar Manduca sexta were dissected by making a small incision to the intestinal lining such that gut contents could be collected in a tube. Multiple dissections were pooled and kept on ice for immediate use, or stored at −80° C. for future use. The isolated midgut (referred to hereinafter as Manduca Gut Extract, or MGE) was then for digest assays. Next, 1 mg/mL TVP was incubated with 0.1 mg/mL bovine trypsin, or 1/10 diluted MGE with 50 mM Tris-HCl, pH 8.8 to maintain alkaline pH. Time points were taken and the digest quenched with the addition of 200 mM HCl. Degradation was quantified by HPLC analysis and rates were determined by fit to a single exponential decay.
(§2) TVPs were assessed for stability in the presence of MGE (as described above). Activity was assessed by injection into houseflies (Musca domestica): […] intrathoracically into houseflies with an average mass of 18 mg. The dose required for 50% knockdown and mortality was determined at 24 hour post-injection.

The subject of data set [2] is houseflies (Musca domestica). Put plainly: Housefly injection assay. It counts as in vivo. As to conditions: for Activity relative to wild-type Ta1b, in words: housefly injection; for Fold Activity Reduction: housefly intrathoracic injection, 24 hour post-injection, relative to wild-type Ta1b; for Fly KD50: dose for 50% knockdown, 24 hours post-injection. As to the method: as §2
Activity of the TVPs identified in the mutant stability assay were assessed by injection into houseflies (Musca domestica). Wild-type Ta1b and the TVPs with amino acid substitutions at positions R9Q and R9N were injected intrathoracically into houseflies with an average mass of 18 mg, at an injection dose of 0.5 μL of toxin or control. The dose of TVP required for 50% knockdown (KD50) was then determined at 24-hours post-injection. […] FIG. 2.
The TVPs: (1) TVP-R9Q; (2) TVP-R9QΔG; (3) TVP-R9Q/T43A/ΔG; (4) TVP-R9Q/T43A; and (5) TVP-R9Q/T43A/ΔK-G, were analyzed in a housefly injection assay. Housefly injections were performed as previously described herein.

The target in another data set is T1, bovine trypsin (Bos taurus, UniProt P00760).
T1 sequence (P00760 24-246): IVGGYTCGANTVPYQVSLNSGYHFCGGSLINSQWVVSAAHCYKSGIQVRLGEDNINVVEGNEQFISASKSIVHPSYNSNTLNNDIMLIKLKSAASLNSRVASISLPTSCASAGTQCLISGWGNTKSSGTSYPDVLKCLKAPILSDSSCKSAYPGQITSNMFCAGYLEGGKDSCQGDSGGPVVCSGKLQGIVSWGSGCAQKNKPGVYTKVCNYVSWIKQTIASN
Put plainly: Bovine trypsin digest of TVPs. It is filed as in vitro ADME. As to conditions: for Half Life (min) Bovine Trypsin: 1 mg/mL TVP, 0.1 mg/mL bovine trypsin, 50 mM Tris-HCl pH 8.8; for Trypsin digestion, in words: alanine scan of basic amino acids; for Fold Change (Trypsin): half life relative to WT Ta1b. As to the method:
as §1
Lepidopteran gut contains trypsin-like proteases that cut after Arg or Lys amino acids; without wishing to be bound by any particular theory, we hypothesized that singly mutating these amino acids to alanine could identify the site(s) that are causing degradation in lepidopteran gut. To test the foregoing hypothesis, TVPs were created by individually mutating each basic amino acid to alanine present in the wild-type Ta1b amino acid sequence. Next, the stability of each of these TVPs was assessed by confronting the TVPs with the digestion conditions as described above.

Data set [3] concerns corn earworm (Helicoverpa zea). Put plainly: Corn earworm injection assay. It counts as in vivo. As to conditions: fourth instar larvae, 24 hours after injection; ± standard error of the mean. As to the method: First, WT Ta1b (WT) and the R9Q mutant of Ta1b (TVP-R9Q) were evaluated in a lepidopteran injection assay. The experimental unit consisted of 8 injected individual corn earworm (Helicoverpa zea) per peptide dose. There were four experimental replicates per peptide. Prior to injection, corn earworm larvae were reared to their fourth instar on standard lepidoptera diet. The larvae were weighed to determine accurate dose calculations. The exact doses varied slightly between replicates because of variations in corn earworm larvae mass, but the approximate doses injected were: 1000, 2000, 4000, and 8000 pmol/g. Injections were performed using a hand microapplicator and a syringe fitted with a 30 gauge needle. Larvae were injected at the base of one of their most posterior prolegs. Larvae were injected with 1 μL of treatment solution.
After injection, larvae were placed in a well of a 32-well tray filled with 5 mL of standard lepidoptera diet. The trays were then placed in a 28° C. Incubator. The condition of the larvae were evaluated 24 hours after injection.

The test system of data set [4] is Helicoverpa gut extract (HGE). Description: Helicoverpa gut extract (HGE) digest, position 9 scan. It is filed as in vitro ADME, Helicoverpa zea. As to conditions: for Half-Life: 30 mM Tris-HCl pH 8.8, time points 0, 3, 22.5 hours. As to the method:
To determine the stability of TVPs when exposed to lepidopteran gut proteases, early fifth instar Helicoverpa zea larvae were dissected to remove the intact digestive tract from other tissues and hemolymph. To obtain the Helicoverpa gut extract (HGE), a small incision was made to the intestinal lining such that gut contents could be collected in a tube. Multiple dissections were pooled and kept on ice for immediate use, or stored at −80° C. for future use.
Wild-type Ta1b (SEQ ID NO: 1) was used as a template, and mutated at amino acid substitution at position 9, (i.e., R9; SEQ ID NO: 1) to produce the TVPs evaluated here; these TVPs have a substitution of the arginine at position 9 (i.e., R9) of the wild-type amino acid sequence (SEQ ID NO: 1), with one of the amino acids F, P, Y, K, W, H, A, G, N, L, D, V, M, I, Q, C, E, T, and S; in addition, a TVP with an R9Q+T43A mutation (relative to wild-type Ta1b) was likewise evaluated (SEQ ID NO: 85).
The TVPs described above and shown in Table 19 were confronted with Helicoverpa gut extract (HGE) to simulate digestion in the lepidopteran gut environment. Here, the TVPs were incubated with 6× diluted amount of HGE obtained from Helicoverpa deep well cell growths. The 6× diluted UGE was supplemented with 30 mM Tris-HCl, pH 8.8, to maintain the alkaline pH of the Helicoverpa gut environment.
Samples of the digested TVPs were collected at time points of 0, 3, and 22.5 hours. To quench the digestion process, 30 mM Glycine, pH 2.0 was added to the samples, and the samples of the digested TVPs were immediately analyzed using reverse-phase HPLC to quantify the TVP peak area.

Data set [5] relates to neonate corn earworm (Helicoverpa zea). Put plainly: Corn earworm oral foliar bioassay. It counts as in vivo. As to conditions: sprayed lettuce leaf discs, fourth day, ± standard error of the mean. How it is done:
In the oral foliar bioassay, the experimental unit consisted of 12 leaf discs (per peptide concentration) sprayed (front and back) with a total spray volume of 5.5 mL (2.75 mL for each side) on which neonate corn earworm (Helicoverpa zea) were allowed to feed. There were four experimental replicates per peptide.
Romaine lettuce was cut into 30 mm diameter disks, and then sterilized using a 140 ppm bleach solution; the disks were then triple rinsed in water. The romaine lettuce disks were then pinned to a Styrofoam board and sprayed with a given treatment; the disks were flipped, sprayed again, allowed to dry, and placed in the arena.
The arena was 32-well rearing tray containing 5 mL of 1% agar. One romaine lettuce disk was placed in each well, with a single first instar corn earworm (Helicoverpa zea) per leaf disk. The trays were then placed in a 28° C. Incubator.
Mortality of the corn earworms was evaluated on the fourth day after spraying and larvae application to the leaf discs. Larvae were scored as either alive (moving and feeding normally) or dead (immobile, discolored).

“And” between values parts separate entries of the source, which are not always exact repeats. Equal values may be shown once.

With “A8N: TVP with substitution A8N (EPDEICRNRMTNKEFTYKSNVCNNCGDQVAACEAECFRNDVYTACHEAQKG; listed as Eratigena agrestis)”, the “Fold Stability Improvement” value in data set [1] came to 1.8 fold.
With “A8S: TVP with substitution A8S (EPDEICRSRMTNKEFTYKSNVCNNCGDQVAACEAECFRNDVYTACHEAQKG; listed as Eratigena agrestis)”, in data set [2], the “Activity relative to wild-type Ta1b, in words” value is “maintain activity similar to the native Ta1b” and the “Fold Activity Reduction” value worked out at 1.3 fold. Moreover, in data set [1], the “Digestibility by Manduca Gut Extract (MGE), in words” value (from here on “Digestibility by Manduca Gut Extract”) is reported as “significant reduction in digestibility” and the “Fold Stability Improvement” value turned out to be 12.1 fold.
In the case of “EPDEICRAAMTNKEFTYKSNVCNNCGDQVAACEAECFRNDVYTACHEAQKG (TVP-R9A)”, the “Fold Activity Reduction” value in data set [2] was 9 fold and 8.7 fold. Besides, in data set [1], the “Half Life (min) Manduca Gut Extract (MGE)” value (“Half Life … (MGE)” for short) stood at 370 min, the “Fold Change (MGE)” value came out at 247 fold and the “Fold Stability Improvement” value came out at 247 fold. In the data set with bovine trypsin, the “Half Life (min) Bovine Trypsin” value is reported as over 6000 min; the “Trypsin digestion, in words” value is reported as “completely abolished trypsin digestion”; the “Fold Change (Trypsin)” value is over 20 fold.
“EPDEICRAEMTNKEFTYKSNVCNNCGDQVAACEAECFRNDVYTACHEAQKG (TVP-R9E)”: the “Fold Activity Reduction” value in data set [2] is reported as over 10 fold.
As to “EPDEICRAHMTNKEFTYKSNVCNNCGDQVAACEAECFRNDVYTACHEAQKG (TVP-R9H)”, the “Fold Activity Reduction” value in data set [2] is 2.5 fold. In data set [1], the “Fold Stability Improvement” value is reported as 16.2 fold.
“EPDEICRANMTNKEFTYKSNVCNNCGDQVAACEAECFRNDVYTACHEAQKG (TVP-R9N)”: in data set [2], the “Activity relative to wild-type Ta1b, in words” value is “maintain activity similar to the native Ta1b” and the “Fold Activity Reduction” value came to 1.5 fold. In data set [1], the “Digestibility by Manduca Gut Extract” value is reported as “significant reduction in digestibility” and the “Fold Stability Improvement” value was over 50 fold.
“EPDEICRARMTNKEFTYKSNVCNNCGDQVAACEAECFRNDVYTACHEAQKG (listed as Eratigena agrestis) [WT Ta1b, reference compound]”: the “Fly KD50” value in data set [2] came to 167 pmol/g. In addition, in data set [3], the “Injection LD50” value was 2933 ± 827 pmol/g. Also, in data set [4] (6× diluted HGE), the “Half-Life” value was 1.9 h. Moreover, in data set [1], the “Half Life … (MGE)” value is recorded as 1.5 min. Also, the “Oral Bioassay % Mortality at 3 ppt” value in data set [5] was 6 ± 3%. In addition, in the data set with bovine trypsin, the “Half Life (min) Bovine Trypsin” value was 288 min.
As for “EPDEICRATMTNKEFTYKSNVCNNCGDQVAACEAECFRNDVYTACHEAQKG (TVP-R9T) [T (Position 9)]”, in data set [4] (6× diluted HGE), the “Result (Stable/Unstable)” value is reported as “Stable” and the “Half-Life” value was 95.8 h. In data set [4] (6× diluted gut extract, relative to wild type Ta1b), the “Gut extract digestion, in words” value was “completely abolished UGE digestion”.
With “K18A: TVP: wild-type Ta1b with basic amino acid K18 mutated to alanine (EPDEICRARMTNKEFTYASNVCNNCGDQVAACEAECFRNDVYTACHEAQKG; listed as Eratigena agrestis)”, in the data set with bovine trypsin, the “Half Life (min) Bovine Trypsin” value is listed as 1194 min; the “Trypsin digestion, in words” value is recorded as “modest, albeit significant reduction in digestibility”; the “Fold Change (Trypsin)” value stood at 4.1 fold.
For the substance “R38A: TVP: wild-type Ta1b with basic amino acid R38 mutated to alanine (EPDEICRARMTNKEFTYKSNVCNNCGDQVAACEAECFANDVYTACHEAQKG; listed as Eratigena agrestis)”, in data set [2], the “Activity relative to wild-type Ta1b, in words” value is on record as “did not show any reduction in activity” and the “Fold Activity Reduction” value came out at 1.0 fold. Besides, in data set [1], the “Half Life … (MGE)” value worked out at 19 min, the “Fold Change (MGE)” value is listed as 8.6 fold and the “Fold Stability Improvement” value was determined as 8.6 fold. In addition, in the data set with bovine trypsin, the “Half Life (min) Bovine Trypsin” value came to 1860 min; the “Trypsin digestion, in words” value was “modest, albeit significant reduction in digestibility”; the “Fold Change (Trypsin)” value is on record as 6.5 fold.
Regarding “T11P: TVP with substitution T11P (EPDEICRARMPNKEFTYKSNVCNNCGDQVAACEAECFRNDVYTACHEAQKG; listed as Eratigena agrestis)”, in data set [2], the “Activity relative to wild-type Ta1b, in words” value is reported as “maintain activity similar to the native Ta1b” and the “Fold Activity Reduction” value is 1.4 fold. Moreover, in data set [1], the “Digestibility by Manduca Gut Extract” value is “significant reduction in digestibility” and the “Fold Stability Improvement” value was determined as 92.9 fold.
As to “TVP-R9Q/ΔG: TVP-R9Q with the C-terminal glycine removed (EPDEICRAQMTNKEFTYKSNVCNNCGDQVAACEAECFRNDVYTACHEAQK; C-terminal Gly deleted; TVP-R9QdG)”, the “Fly KD50” value in data set [2] was 136 pmol/g.

These data come from patent US12648572B2, “Proteolytically stable U1-agatoxin-Ta1b variant polypeptides for pest control” (Vestaron Corporation, priority 2020, dated 2026).
